# Laboratory results reported in IntAct's records for PubMed 23169619.
# B1: Protein TIFY 7 (Arabidopsis thaliana (Mouse-ear cress)), Q8W4J8 (parent)
# chain: MERDFLGLSDKQYLSNNVKHEVNDDAVEERGLSTKAAREWGKSKVFATSSFMPSSDFQEAKAFPGAYQWGSVSAANVFRRCQFGGAFQNATPLLLGGSVPLPTHPSLVPRVASSGSSPQLTIFYGGTISVFNDISPDKAQAIMLCAGNGLKGETGDSKPVREAERMYGKQIHNTAATSSSSATHTDNFSRCRDTPVAATNAMSMIESFNAAPRNMIPSVPQARKASLARFLEKRKERLMSAMPYKKMLLDLSTGESSGMNYSSTSPT
# B2: Protein TIFY 7 (Arabidopsis thaliana (Mouse-ear cress)), Q8W4J8 (parent)
# chain: B1 chain
# partner: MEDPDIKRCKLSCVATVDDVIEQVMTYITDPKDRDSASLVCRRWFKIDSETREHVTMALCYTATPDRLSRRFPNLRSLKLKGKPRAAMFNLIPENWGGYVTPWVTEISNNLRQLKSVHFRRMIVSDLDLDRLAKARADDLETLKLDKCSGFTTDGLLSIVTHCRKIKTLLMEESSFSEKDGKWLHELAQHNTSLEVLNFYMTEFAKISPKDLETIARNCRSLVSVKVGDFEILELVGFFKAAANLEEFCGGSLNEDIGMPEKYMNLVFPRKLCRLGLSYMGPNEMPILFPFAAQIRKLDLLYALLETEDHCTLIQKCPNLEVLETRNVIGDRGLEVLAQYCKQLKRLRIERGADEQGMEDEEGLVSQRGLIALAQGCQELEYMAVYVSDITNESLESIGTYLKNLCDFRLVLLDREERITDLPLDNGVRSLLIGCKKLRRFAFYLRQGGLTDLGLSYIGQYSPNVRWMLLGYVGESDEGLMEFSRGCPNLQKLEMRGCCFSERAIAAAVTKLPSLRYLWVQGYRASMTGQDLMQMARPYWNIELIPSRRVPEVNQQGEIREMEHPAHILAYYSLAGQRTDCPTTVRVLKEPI
# Variants of: B1
# Conditions: with myc2_arath MYC2, Q39204
# myc2_arath MYC2, Q39204, sequence (Q39204 whole entry): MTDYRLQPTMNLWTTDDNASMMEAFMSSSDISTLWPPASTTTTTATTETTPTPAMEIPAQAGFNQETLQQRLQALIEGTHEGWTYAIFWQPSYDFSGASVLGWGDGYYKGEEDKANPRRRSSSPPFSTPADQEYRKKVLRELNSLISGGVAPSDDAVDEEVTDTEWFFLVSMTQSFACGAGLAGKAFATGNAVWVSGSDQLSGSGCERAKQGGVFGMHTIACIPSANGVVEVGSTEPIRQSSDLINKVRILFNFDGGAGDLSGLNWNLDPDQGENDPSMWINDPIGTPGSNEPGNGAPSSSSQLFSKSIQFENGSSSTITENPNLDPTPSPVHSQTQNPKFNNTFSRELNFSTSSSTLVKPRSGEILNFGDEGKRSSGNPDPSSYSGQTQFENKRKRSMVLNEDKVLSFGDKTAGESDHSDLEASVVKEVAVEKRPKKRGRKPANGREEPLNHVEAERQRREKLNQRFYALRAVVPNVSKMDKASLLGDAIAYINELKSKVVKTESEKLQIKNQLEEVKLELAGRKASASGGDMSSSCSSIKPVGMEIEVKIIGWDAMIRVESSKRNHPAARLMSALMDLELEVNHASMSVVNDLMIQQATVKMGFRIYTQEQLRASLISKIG
row,effect of a mutation on the interaction,Variant
1,disrupting interaction strength,R234A
2,disrupting interaction strength,K233A;R234A
3,disrupting interaction strength,K233A;R234A;K235A

# Variants of: B2
# Conditions: with coi1_arath COI1, O04197
row,effect of a mutation on the interaction,Variant
1,disrupting interaction strength,R223A;K224A
2,disrupting interaction strength,R234A
3,disrupting interaction strength,K233A;R234A;K235A
4,disrupting interaction strength,K233A;R234A
